Read-outs that look alike come from different tables or passages of the source.
Tests used:
MYB70 [1] = target: T1, MYB70 (Arabidopsis thaliana, UniProt O22179 1-309); experiment: EMSA
MYB70 [2] = target: T1, MYB70; experiment: EMSA; remark: listed apart in the source

B1: GPAT5 probe (dsDNA)
DNA 1: AATCATAGTTTTGTTACAAGCGAAATCTGAAA
DNA 2: TTTCAGATTTCGCTTGTAACAAAACTATGATT
binding result (MYB70 [1]): binds

B2: GH3.3 probe (dsDNA)
DNA 1: ATCAAGAATTAGTTTTAGTTATCAATAAATAGGA
DNA 2: TCCTATTTATTGATAACTAAAACTAATTCTTGAT
binding result (MYB70 [2]): binds

B3: PER57 probe (PER probe) (dsDNA)
DNA 1: GCCTCAACTAATAAGTTGTTATGTGCAA
DNA 2: TTGCACATAACAACTTATTAGTTGAGGC
binding result (MYB70 [1]): binds

— PMC8551079
